# B1: MK0.6: 0.6 kb (609 bp, −559 to +50) of the human midkine genomic gene, base sequence SEQ ID NO: 1 (nucleic acid, listed as Homo sapiens)
# DNA: GCTTCCCTGCCCACCCGCGGAAACCGCCCCAGGTGGCCGCGCCCCCTCCCCAGCAGCCAGCAGGGCGCCAGGGCTGAGCCGGCCGTGGAGGGGAGCGGGTCCCGGGGGTTATACAGGCGCCGGGCGTCCGCGGCAGGCAAGAGAAGCTGAGGCCTGAGAACGGCCCGGGCCTTGGCGTACGGCAGGGGACGACCTGGGATGGGGGCAGCGGGCGGCGGCGCAGGGAGTGGGCCGGGGCCGGTGTGCGCGGGCGGGACGGGGCCGGGGTCGGGAGACCACCGCTCGGAAGATGGGGCCGGGAGAGGCCGCCGTCGCAGCGCAGAGGGCACCGGCGGGGAGACGCGAGGACGCGGGGCCGGGAACACGGACGCCGGAGTAGAAGCGCGGGGGGGGCGGGCTGGAGCGGGGGCGGGGACGCCGGGGTCGGGGGCGGTGCGGGTTTGAGGGGAGGGGGCGGGGCGGGTCCTTCCCTGGGGGGGTGGGGAGAGGGGGCGGGGGCCCATGTGACCGGCTCAGACCGGTTCTGGAGACAAAAGGGGCCGCGGCGGCCGGAGCGGGACGGGCCCGGCGCGGGAGGGAGCGAAGCAGCGCGGGCAGCGAGCGAGTGAG
# B2: MK335bp: 335 bp midkine region from −285 to +50, base sequence SEQ ID NO: 4 (nucleic acid, listed as Homo sapiens)
# DNA: ACCACCGCTCGGAAGATGGGGCCGGGAGAGGCCGCCGTCGCAGCGCAGAGGGCACCGGCGGGGAGACGCGAGGACGCGGGGCCGGGAACACGGACGCCGGAGTAGAAGCGCGGGGGGGGCGGGCTGGAGCGGGGGCGGGGACGCCGGGGTCGGGGGCGGTGCGGGTTTGAGGGGAGGGGGCGGGGCGGGTCCTTCCCTGGGGGGGTGGGGAGAGGGGGCGGGGGCCCATGTGACCGGCTCAGACCGGTTCTGGAGACAAAAGGGGCCGCGGCGGCCGGAGCGGGACGGGCCCGGCGCGGGAGGGAGCGAAGCAGCGCGGGCAGCGAGCGAGTGAG
# Legend:
# [1] = test system: lung cancer cells QG-56; experiment: In vitro sensitivity to GCV of MK0.6-TK-introduced cells; assay type: cell-based, human
# Experimental: (§1) (2) Then, the tumor-specificity of this MK0.6 promoter was examined using the human tumor cells and normal fibroblasts. As described above, MK0.6-TK was introduced into various types of cells using lipofectin, and they were cultured in the presence of 400 μg/ml of G418 for ten days to obtain cells in which the MK0.6-TK gene was expressed. Thus, these gene-introduced cells were plated at 500 cells/well of 96-well culture plates, and were cultured in the presence of various concentrations of GCV for seven days. The survival rate of the cells was examined using the Cell Counting Kit-8. The results obtained are shown in FIG. 3A, FIG. 3B and FIG. 3C.
# [2] = as currently used for treatment of cytomegalovirus infections; cited from earlier work
# [3] = test system: neuroblastoma NGP cells; experiment: In vitro sensitivity to GCV of MK0.6-TK-introduced cells; assay type: cell-based, human; conditions: MK0.6-TK-introduced NGP; GCV seven days; FIG. 3B
# Experimental: as §1
# [4] = test system: normal fibroblasts HEF; experiment: as above; assay type: cell-based, human; conditions: MK0.6-TK-introduced HEF; GCV seven days; FIG. 3C
# Experimental: as §1
# [5] = test system: normal MRC-5 cells; experiment: In vitro sensitivity to GCV of promoter-TK gene-introduced cells (Cell Counting Kit-8 survival); assay type: cell-based, human; conditions: HSV-TK gene controlled by the promoter, GCV seven days, FIG. 2A
# Experimental: (§2) (1) In order to examine cytotoxic effects by the transcription activity of the promoter obtained from the midkine gene, herpes simplex virus thymidine kinase (HSV-TK), a suicide gene, was ligated downstream of MK0.6 and MK2.3, and the plasmid was introduced in cells, and a prodrug gancyclovir (GCV) was added into the culture medium of the gene-introduced cells. The method of determining the cytotoxic effect by this system is as described in Moolten, FL. Cancer Gene Ther., 1:279–287, 1994.
# (§3) First, the CMV promoter of pcDNA3 (manufactured by Invitrogen) was removed using NruI and HindIII sites, to which MK2.3 or Mk0.6 was inserted, and then using the EcoRV site, the HSV-TK gene excised from pMK (Brinster, R L et al., Cell, 27:223–231, 1981) with BglI and EcoRI was inserted. Each of the plasmids thus obtained (MK2.3-TK and MK0.6-TK) was introduced, as described above, using lipofectin into MRC-5 which are normal cells, or MRC-5 cells that had been immortalized by inactivating the functions of the p53 tumor suppressor gene. In order to utilize the expression of the Neo gene contained in pcDNA3 as drug resistant markers, the cells were cultured with 400 μg/ml of G418 (manufactured by Life Technologies) for ten days to establish the cells that expressed MK2.3-TK and MK0.6-TK, respectively. These cells were then plated at 500 cells/well of 96-well culture plates, and were cultured in the presence of various concentrations of GCV (manufactured by F. Hoffman-La Roche) for seven days. The survival rate of the cells was examined using the Cell Counting Kit-8 (manufactured by Dojin Kagaku). The survival of the cells at a GCV concentration of 0 μg/ml was set as 100%, and the survival for each experiment group is shown in terms of percentage in FIG. 2A and FIG. 2B.
# [6] = test system: immortalized MRC-5 cells (p53 functions inactivated); experiment: as above; assay type: cell-based, human; conditions: HSV-TK gene powered by the promoter, GCV seven days, FIG. 2B
# Experimental: as §2, §3
# [7] = test system: lung cancer cells QG-56, neuroblastoma NGP; experiment: CAT assay of promoter transcription activity, tumor cells; assay type: cell-based, human
# Experimental: (§4) Using the above plasmid, or a plasmid pCAT-Control (manufactured by Promega) having the promoter of SV40 virus, and a plasmid pCAT-Basic (manufactured by Promega) containing no promoters, gene introduction was performed on the lung cancer cells QG-56, the neuroblastoma NGP, and the normal human fibroblasts MRC-5 that were being cultured in a DMEM (Sigma) supplemented with 10% bovine fetal serum. After 10 μg each of these plasmids and lipofectin (Life Technologies) were mixed, it was allowed to stand at room temperature for 30 minutes to form a complex. Then the complex, after removing the bovine fetal serum therefrom, was contacted with the cells. Eight hours later culture medium supplemented with bovine fetal serum was added, cultured for 40 hours, and then the gene-introduced cells were disrupted by ultrasonication. After centrifugation, the supernatants were used to examine their transcription activities with the known CAT assay method (Gorman, C M et al., Mol. Cell. Biol., 2:1044–1051, 1982) using [^14C]-chloramphenicol and acetyl CoA. At this time, in order to normalize the efficiency of gene introduction, 1 μg of the β-galactosidase gene (pCH110, manufactured by Amersham) was introduced at the same time, and the β-galactosidase activity (Heromel, P. et al., Cell, 39:653–662, 1984) was determined.
# [8] = test system: normal human fibroblasts MRC-5; experiment: CAT assay of promoter transcription activity, normal cells; assay type: cell-based; conditions: FIG. 1
# Experimental: as §4
# [9] = test system: immortalized MRC-5 cells; experiment: Luciferase assay of MK0.6 promoter activity under expression of wild-type p53; assay type: cell-based, human; conditions: FIG. 5
# Text: In at least about 50% of human solid tumors, the loss of p53 gene functions is observed, and forced expression of-the wild-type p53 gene in tumors arrests tumor growth in some cases. Thus, using the MRC-5 cells that had been immortalized by destroying the functions of the p53 gene, DNA plasmid was introduced in which the luciferase gene, a reporter gene, was ligated downstream of the MK0.6 promoter, and the transcription activity of the MK0.6 promoter under the expression of the wild-type p53 gene was examined.
# For this purpose, the MK0.6-CAT plasmid prepared in Example 1 was cleaved with HindIII, and the MK0.6 kb gene obtained was inserted into the HindIII site of pGL2-Basic (manufactured by Promega). […] After 48 hours-culture, the cells were disrupted using the Dual-Luciferase Reporter Assay System (manufactured by Promega), and the Firefly luciferase activity therein was determined using the reagents in the same kit. In order to normalize the efficiency of transfection, 1 μg of pRL-TK plasmid (manufactured by Promega) was included in each transfection, and the Renilla luciferase activity by the TK promoter was determined, based on which the Firefly luciferase activity was corrected.
# [10] = test system: lung cancer cells QG-56, PC-1, human breast cancer cells BT549; experiment: Luciferase assay of midkine promoter activity in tumor cells; assay type: cell-based; conditions: FIG. 6
# Text: Using the PCR method based on the information of the midkine genomic DNA, a DNA fragment that corresponds to a 335 bp region (MK335bp) from −285 to +50 and that has the base sequence set forth in SEQ ID NO: 4 was synthesized, and after confirming the sequences, it was inserted into pCR2.1 (manufactured by Invitrogen). After excising MK335bp from this DNA, it was ligated to pGL2-Basic (manufactured by Promega) to construct a plasmid for detecting promoter activity. Furthermore, using pGL2-Control (manufactured by Promega) containing the promoter of SV40 virus and pGL2-Basic containing a similarly constructed 609 bp midkine promoter (MK0.6), promoter activity was examined by the following method.
# The lung cancer cells QG-56, PC-1, and human breast cancer cells BT549 that were cultured in DMEM (Sigma) supplemented with 10% bovine fetal serum, were transfected. After 10 μg each of these plasmids and lipofectin (manufactured by Life Technologies) were mixed, it was allowed to stand at room temperature for 30 minutes to form a complex. […] In order to normalize the efficiency of gene introduction, 1 μg of pRL-TK plasmid (manufactured by Promega) was included in each gene introduction group, and the Renilla luciferase activity by the TK promoter was determined, based on which the Firefly luciferase activity was corrected.
molecule,measurement,setting,value
"Nc1nc(O)c2ncn(COC(CO)CO)c2n1 [GCV, gancyclovir, reference compound]",concentration at which the cytotoxic effects by GCV was obtained,"[1]; MK0.6-TK-introduced tumor cells (QG-56, NGP)",100 ng/mL
same,maximum blood concentration of GCV,[2],1 µg/mL
B1,sensitivity to GCV compared to parent strain,[3],1000 fold
same,sensitivity to GCV compared to parent strain,"[1]; MK0.6-TK-introduced QG-56, GCV seven days, FIG. 3A",1000 fold
same,sensitivity to GCV compared to parent strain,[4],remained the same
same,sensitivity to GCV compared to that of the parent strain,[5],identical with that of the parent strain
same,sensitivity to GCV compared to that of the parent strain,[6],1000 fold
same,tumor-specificity of promoter activity,[7]; tumor cells versus normal cells,specifically strong in tumors
same,transcriptional activity compared with other midkine promoter fragments,"[7]; tumor cells, FIG. 1",more potent in the tumor cells than MK1.0 or MK2.3
same,transcriptional activity compared with promoter of SV40 virus,"[7]; tumor cells, FIG. 1",more potent than the promoter of SV40 virus in the tumor cells
same,transcriptional activity compared with other midkine promoter fragments,[8],rather decreased in the normal cells
same,MK0.6 promoter activity with increasing amounts of CMV-p53 plasmid,[9]; CMV-p53 0–1 μg co-transfected,decreased
same,MK0.6 promoter activity with control CMV-p53R plasmid,[9]; CMV-p53R 0–1 μg co-transfected,no changes
B2,promoter activity compared with MK0.6,[10],almost the same activity as that of MK0.6

# From patent US7030099B2, “Tumor specific promoters of the midkine gene that allow for selective expression in P53-inactivated cells” (Research Corporation Technologies, Inc., priority 2000, dated 2006)
